According to patent US20220298230A1 (ROCKEFELLER UNIVERSITY, published 2022):

B1: Flu1_ALIE (antibody)
heavy: not shown
light: DIQMTQSPSSLSASVGDRVTITCRTSQSLSSYLHWYQQKPGKAPKLLIYAASSLQSGVPSRFSGSGSGTDFTLTISSLQPEDFATYYCQQSRTFGQGTKVEIKRTVAAPSVFIFPPSDEQLKSGTASVVCLLNNFYPREAKVQWKVDNALQSGNSQESVTEQDSKDSTYSLSSTLTLSKADYEKHKVYACEVTHQGLSSPVTKSFNRGEC
B2: Flu1_afucosylated (antibody)
heavy: not shown
light: B1 light
notes: also called the afucosylated antibody
B3: 3C05_ALIE (antibody)
heavy: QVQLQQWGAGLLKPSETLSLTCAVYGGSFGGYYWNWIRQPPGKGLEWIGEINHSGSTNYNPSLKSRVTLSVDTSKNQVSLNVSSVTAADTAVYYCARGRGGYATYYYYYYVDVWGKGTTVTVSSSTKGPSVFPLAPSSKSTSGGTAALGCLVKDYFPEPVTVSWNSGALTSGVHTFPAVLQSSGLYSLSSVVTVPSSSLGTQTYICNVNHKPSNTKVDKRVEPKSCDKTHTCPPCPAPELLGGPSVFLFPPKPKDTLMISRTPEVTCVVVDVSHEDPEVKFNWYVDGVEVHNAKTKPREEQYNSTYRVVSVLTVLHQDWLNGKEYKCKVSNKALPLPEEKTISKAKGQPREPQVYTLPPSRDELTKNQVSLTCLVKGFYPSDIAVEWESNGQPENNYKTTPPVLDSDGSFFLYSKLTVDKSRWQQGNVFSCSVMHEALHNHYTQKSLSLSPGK
light: EIVLTQSPATLSLSPGERATLSCRASQSVSSYLAWYQQKPGQAPRLLIYDASKRATGIPARFSGSGSGTDFTLTISSLEPEDFAVYYCQQRSNWLTFGGGTKVELERTVAAPSVFIFPPSDEQLKSGTASVVCLLNNFYPREAKVQWKVDNALQSGNSQESVTEQDSKDSTYSLSSTLTLSKADYEKHKVYACEVTHQGLSSPVTKSFNRGEC
B4: 1A01_ALIE (antibody)
heavy: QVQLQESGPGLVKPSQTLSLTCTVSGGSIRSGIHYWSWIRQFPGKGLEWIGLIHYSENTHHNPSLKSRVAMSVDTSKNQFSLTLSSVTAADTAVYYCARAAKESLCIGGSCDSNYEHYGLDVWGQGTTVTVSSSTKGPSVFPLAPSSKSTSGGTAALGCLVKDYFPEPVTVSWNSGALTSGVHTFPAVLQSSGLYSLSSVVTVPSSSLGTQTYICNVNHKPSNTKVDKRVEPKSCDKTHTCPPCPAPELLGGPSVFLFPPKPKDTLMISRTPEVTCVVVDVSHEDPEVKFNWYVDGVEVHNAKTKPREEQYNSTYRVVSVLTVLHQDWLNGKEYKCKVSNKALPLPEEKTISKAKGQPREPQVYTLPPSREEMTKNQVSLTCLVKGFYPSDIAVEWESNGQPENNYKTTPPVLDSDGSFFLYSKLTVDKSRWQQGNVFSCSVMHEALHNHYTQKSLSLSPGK
light: DIQMTQSPSSLSASIGDRVTITCRASQSIRNYLNWYQQKPGKAPKLVIYAVSNLQSGVPSRFSGSGSGTDFTLTISSLQPEDLATYYCQQSYSTLPYTFGQGTKVEIKLERADAAPTVSIFPPSSEQLTSGGASVVCFLNNFYPKDINVKWKIDGSERQNGVLNSWTDQDSKDSTYSMSSTLTLTKDEYERHNSYTCEATHKTSTSPIVKSFNRNEC

Key:
FcγRIIIa [1] = biological target: T1, FcγRIIIa (human, UniProt P08637 17-208); experiment: stated in the variant's description; method not given
T1 construct: also called FcγRIIIa/b (first member)
T1 sequence (P08637 17-208 limits assumed): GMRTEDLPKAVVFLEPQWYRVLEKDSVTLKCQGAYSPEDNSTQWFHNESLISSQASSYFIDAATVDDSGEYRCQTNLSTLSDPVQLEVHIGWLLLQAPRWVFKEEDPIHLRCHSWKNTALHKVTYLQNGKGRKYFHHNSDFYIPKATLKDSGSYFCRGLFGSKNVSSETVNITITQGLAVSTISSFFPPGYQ

FcγRIIIb [2] = biological target: T2, FcγRIIIb (human, UniProt O75015 17-200); experiment: as above
T2 construct: also called FcγRIIIa/b (second member)
T2 sequence (O75015 17-200 limits assumed): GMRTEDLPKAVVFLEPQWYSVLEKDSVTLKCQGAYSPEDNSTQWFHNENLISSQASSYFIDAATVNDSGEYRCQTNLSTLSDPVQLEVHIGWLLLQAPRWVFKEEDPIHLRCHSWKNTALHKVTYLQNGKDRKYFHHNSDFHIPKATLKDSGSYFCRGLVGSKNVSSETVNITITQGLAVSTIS

FcγRIIIa [3] = biological target: T1, FcγRIIIa; experiment: stated in the variant's description; FcγR binding profile in FIG. 22A
FcγRIIIb [4] = biological target: T2, FcγRIIIb; experiment: as above

Binder	binding result (FcγRIIIa [1])	binding result (FcγRIIIb [2])	binding result (FcγRIIIa [3])	binding result (FcγRIIIb [4])
B1	binds	binds	–	–
B2	binds	binds	–	–
B3	–	–	binds	binds
B4	binds	binds	–	–
